This is an account of results in PMC9606039, “Molecular analysis of a public cross-neutralizing antibody response to SARS-CoV-2” (Cell Reports, 2022).

In the test the target is receptor-binding domain (RBD) (residues 319-541) of the SARS-CoV-2 spike (S) protein (SARS-CoV-2, ancestral Wuhan-Hu-1 …, UniProt P0DTC2).

B1: XG005 (antibody, V domains shown)
VH: QVTLRESGPTLVKPKQTLTLTCTFSGFSLSTPGGGVGWIRQPPGKALEWLALIYWDDDKRYSPSLKSSLTITKDTSKNQVVLTMTNMDPVDTATYYCARLTAADTIFDCWGQGTLVTVSS
VL: QSALTQPASVSGSPGLSITISCTATSSDVGAYNYVSWYQQHPGQAPKLMIYDVSKRPSGVSNRFSGSKSANTASLTISGLQAEDEADYYCSSYTTTSVVFGGGTKLTVL
With B1, the binding result is “binds”.

B2: XGv265 (antibody, V domains shown)
VH: QITLKESGPTLVKPTQTLTLTCNFSGFSLNTYGVGVGWIRQPPGKALEWLALIYWDGDERYGPFFKNKVTIAKDTSKNQVVLTMTNMDPVDTATYYCARHLIPTIFDYWGQGTLVTVSS
VL: QSALTQPASVSGSPGQSITISCTGTSSDVGGSNYVSWYQHHPDRAPKLLIYEVTNRPSGVSNRFSGSKSANTASLTISGLQAEDEADYYCSSYTTTSTHILFGGGTKLTV
B2: the binding result was “binds”.
